Tests used:
[1] = compound: O=C(N[C@@H](CSCc1cc(=O)oc2cc(O)ccc12)C(=O)O)OCC1c2ccccc2-c2ccccc21; test: Non-competitive inhibition of human recombinant-Sialin expressed in HEK293 cells assessed as reduction in [3H]Neu5Ac uptake by measuring Km level at 3 uM incubated for 15 mins by liquid scintillation counting method (reference value: 1.4 +/- 0.5 mM)
[2] = compound: CC(C)C[C@H](NC(=O)OCC1c2ccccc2-c2ccccc21)C(=O)O; test: Non-competitive inhibition of human recombinant-Sialin expressed in HEK293 cells assessed as reduction in [3H]Neu5Ac uptake by measuring Km level at 10 uM incubated for 15 mins by liquid scintillation counting method (reference value: 1.6 +/- 0.3 mM); format: cell-based

B1: Sialin (Homo sapiens), Q9NRA2 (protein)
chain: MRSPVRDLARNDGEESTDRTPLLPGAPRAEAAPVCCSARYNLAILAFFGFFIVYALRVNLSVALVDMVDSNTTLEDNRTSKACPEHSAPIKVHHNQTGKKYQWDAETQGWILGSFFYGYIITQIPGGYVASKIGGKMLLGFGILGTAVLTLFTPIAADLGVGPLIVLRALEGLGEGVTFPAMHAMWSSWAPPLERSKLLSISYAGAQLGTVISLPLSGIICYYMNWTYVFYFFGTIGIFWFLLWIWLVSDTPQKHKRISHYEKEYILSSLRNQLSSQKSVPWVPILKSLPLWAIVVAHFSYNWTFYTLLTLLPTYMKEILRFNVQENGFLSSLPYLGSWLCMILSGQAADNLRAKWNFSTLCVRRIFSLIGMIGPAVFLVAAGFIGCDYSLAVAFLTISTTLGGFCSSGFSINHLDIAPSYAGILLGITNTFATIPGMVGPVIAKSLTPDNTVGEWQTVFYIAAAINVFGAIFFTLFAKGEVQNWALNDHHGHRH
In the case of B1, the Km [1] is reported as 1700 µM and the Km [2] is reported as 1300 µM.

Source: ChEMBL document CHEMBL4627406, “Amino Acids Bearing Aromatic or Heteroaromatic Substituents as a New Class of Ligands for the Lysosomal Sialic Acid Transporter Sialin” (J Med Chem, 2020)
